From patent publication US20040001839A1, “Multimers - isolated molecules comprising epitopes containing sulfated moieties, antibodies to such epitopes, and uses thereof” (priority 2000, published 2004)

B1: CONY1: scFv derived from Y1 scFv, myc tag replaced by lysine, alanine, lysine (KAK); SEQ ID NO:204 (protein, listed as Homo sapiens)
scFv: MKYLLPTAAAGLLLLAAQPAMAEVQLVESGGGVVRPGGSLRLSCAASGFTFDDYGMSWVRQAPGKGLEWVSGINWNGGSTGYADSVKGRFTISRDNAKNSLYLQMNSLRAEDTAVYYCARMRAPVIWGQGTLVTVSRGGGGSGGGGSGGGGSSELTQDPAVSVALGQTVRITCQGDSLRSYYASWYQQKPGQAPVLVIYGKNNRPSGIPDRFSGSSSGNTASLTITGAQAEDEADYYCNSRDSSGNHVVFGGGTKLTVLGAAAKAK
B2: S-S Y1 dimer: disulfide bridge dimer of Y1 scFv compared with CONY1 and Y1-IgG in Example 12 (protein)
scFv 1: MEVQLVESGGGVVRPGGSLRLSCAASGFTFDDYGMSWVRQAPGKGLEWVSGINWNGGSTGYADSVKGRFTISRDNAKNSLYLQMNSLRAEDTAVYYCARMRAPVIWGQGTLVTVSRGGGGSGGGGSGGGGSSELTQDPAVSVALGQTVRITCQGDSLRSYYASWYQQKPGQAPVLVIYGKNNRPSGIPDRFSGSSSGNTASLTITGAQAEDEADYYCNSRDSSGNHVVFGGGTKLTVLGGGGCKAK
scFv 2: B2 scFv 1

Columns and labels:
KG-1 cells [1] = test: AML KG-1 model in NOD/SCID mice; format: in vivo
Procedure: The in vivo mouse model for human AML uses SCID/NOD mice (Jackson Laboratories) inoculated with KG-1 cells derived from a human AML cell line.
In a first experiment, NOD/SCID mice were pretreated with 100 mg/kg CYTOXAN®. Four days post CYTOXAN® injection, KG-1 cells were injected intravenously into the tail vein of six groups of mice. (Table N, Groups 2 and 5-9). One group of mice (Table N, Group 1) was injected with PBS alone (control). [273.][273.]
Beginning 19 days post KG-1 injection mice were treated with: CONY1, Doxorubicin, CONY1-Doxorubicin conjugate, or Mylotarg®. (Mylotarg® is a monoclonal antibody (anti CD33) conjugated chemically to calcheamicin recently approved by the FDA for treatment of AML patients age 60 and over in a first relapse.) Mice were treated once or three times per week for three weeks. […]
Mice were sacrificed from 60 to 65 days post cell injection. Bone marrow and blood samples were analyzed by flow cytometry using mouse anti human CD34-FITC (IQP 144F) (or anti CD44-FITC (MCA89F, Serotec)) and Y1-Biotin/SAV-PE. […]
An additional experiment was performed in which SCID-NOD mice were i.v. injected with 3×10^4 MOLT-4 cells/mouse 5 days post treatment with cyclophosphamide. […] Bone marrow was extracted and analyzed by FACS analysis using a commercially available antiCD44 antibody for the detection of MOLT-4 cells in the mice bone marrow cell population.

[2] = biological target: T1, GPIb (glycocalicin) derived from platelets (Homo sapiens, UniProt P07359); test: ELISA of monomer and dimer to GPIb (glycocalicin); format: binding
T1 construct: glycocalicin (soluble, extracellular fragment of GPIbα); from tissue; host or cells: human platelets
Procedure: An ELISA assay was performed to ascertain the differences in binding between the monomer (the Y1 scFv-also known as Y1-kak) and the dimer Y1-cys-kak (the cysteine dimer) for antigen GPIb (glycocalicin) derived from platelets. A polyclonal anti single chain antibody and/or a novel polyclonal anti-VL (derived from rabbits) and anti-rabbit HRP, were used to detect the binding to GPIb. […] For instance, to reach 0.8 OD units 12.8 μg/ml of monomer was used compared to only 0.1 μg/ml of dimer.
100 ml of purified glycocalicin was incubated in a 96 flat well maxisorp plates, overnight at 4 degrees celsius. The plate was washed with PBST (PBS+0.05% tween) 3 times, then […] of PBST-milk (PBST+2% Non fat milk), for 1 hr at room temperature. The plate was washed with PBST, and the monomer or dimer (100 ml) was added in PBST-milk at different concentrations for 1 hr at room temp. Then the plate was washed and anti-VL polyclonal (derived from immunized rabbits with VL derived from Y1) (1:100 diluted in PBST-milk) was added for an hour. The plate was washed and anti-rabbit HRP was added for an additional hour. The plate was washed 5 times and 100 μl TMB substrate was added for approximately 15 minutes then 100 μl of 0.5 H2SO4 was added to stop the reaction. The optical density of the plate was measured at 450 nm in an ELISA reader.

[3] = Pharmacokinetics of 125I-CONY1 after intravenous injection in mice; format: in vivo, Balb-C mice; conditions: 15 μg per mouse i.v.; plasma TCA-precipitable radioactivity, two-compartment model
Procedure: Two to four mice were used per time point. […] Organ/tissue total and specific radioactivity values were calculated.

MOLT-4 cells = test: T-ALL (MOLT4) model in SCID mice; format: in vivo
Procedure: The in vivo mouse model for T-ALL uses SCID mice (Jackson Laboratories) injected with MOLT4 cells derived from a T cell leukemia patient.
In one experiment, SCID mice were pretreated with 100 mg/kg Cytoxan (CTX, Cyclophosphamid for injection, Mead Johnson). Eleven days after CTX injection, MOLT-4 cells were injected intravenously into the tail vein. Control mice were injected with PBS alone. One week post-MOLT-4 injection mice were injected with CONY1-Doxorubicin, which is a conjugate between scFv CON Y1 polypeptide, having KAK amino acid residues at its carboxy end and doxorubicin via a short organic linker; CONY1, which is a scFv antibody fragment derived from Y1 scFv in which the DNA sequences encoding the myc tag of Y1 were deleted and replaced with a DNA sequence encoding the amino acids lysine, alanine, lysine (KAK); or free Doxorubicin. The mice were injected three times per week for three weeks. […] (Table M).
Mice started to die 32 days post cell inoculation, and the surviving mice were sacrificed at this time. Bone marrow cells were analyzed by flow cytometry using anti-human CD44-FITC and Y1-Biotin/SAV-PE. Blood samples from several animals were monitored for platelet and white blood cell count. Livers were weighted and examined for tumor appearance. Other organs were also examined for tumor appearance.
In a second experiment, SCID mice were i.v. injected with 2×10^7 MOLT-4 cells/mouse, 5 days post treatment with cyclophosphamide. Anti-cancer agents or PBS (negative control animals) were injected i.v. three times/week from day 5 post MOLT-4 cells injection and onward. On day 35, blood was drawn from the animals, the animals were sacrificed, and their livers were excised and weighed. In the untreated, PBS-treated MOLT-4 cell-bearing animals, the liver presented with a very massive tumor growth, and its size was increased 2-3-fold relative to PBS control uninfected animals. In this experiment, there were five treatment groups:
In parallel, portions of liver tissue were taken for histology and cell harvesting for FACS analysis. The survival rate of another group of treated animals was recorded relative to that of control untreated mice.
In a third experiment, using the identical SCID/MOLT-4 protocol, there were 6 groups: […]

KG-1 cells [4] = test: Radioreceptor binding assay with KG-1 cells; parameters: species or system human; conditions: 2 ng/tube 125I-Y1-IgG tracer
Procedure: The assay system involved the use of radioactive ligands that were prepared by iodination with ^125I using chloramine T on the Y1-IgG construct or the Bolton-Hunter (CONY1) reagent. The assay tubes contained 5×10^6 KG-1 cells per 0.2 ml and a labeled tracer with varying amounts of unlabeled competitor, in PBS+0.1% BSA, pH 7.4. After one hour incubation with agitation at 4° C., the cells were thoroughly washed with cold buffer and taken for radioactivity counting.
For the radio receptor binding assay (RRA), 2 ng/tube of ^125I-Y1-IgG was used, and competition was performed with each of the three molecules. […] A rough estimate of the affinity of the Y1-IgG in this experiment is 2×10^−8 M. The corresponding affinity of the dimer is, therefore, 4×10^−8 M.
In a second RRA using labeled CONY1, a 100 ng/tube of ^125I-Y1-IgG was used, and competition was performed with each of the three molecules. […] A rough estimate of the affinity of CONY 1 in this experiment is 10^−6M. The corresponding affinity of the dimer is, therefore, 5×10^−8 M.

Molecule	percentage of KG-1 cells in bone marrow (KG-1 cells [1]; KG-1 cells incubated in vitro with scFv (0.25 mg/10^8 cells) before injection (groups 3 and 4))	development of the malignancy (cancer cells in bone marrow, day 60) (KG-1 cells [1]; additional experiment, 75 μg/mouse i.v. three times/week from day 14)	concentration used to reach 0.8 OD units [2] [µg/mL]	half-life of blood clearance, second compartment [3] [h]	liver weight versus mice treated with free Doxorubicin or left untreated (MOLT-4 cells; first experiment, 3 times per week for three weeks, sacrificed 32 days post cell inoculation)	tumor growth in the liver (liver weights, day 35) (MOLT-4 cells; second experiment, 75 μg/mouse i.v. three times/week from day 5)	tumor growth (based on liver weights) (MOLT-4 cells; third experiment, 75 μg/mouse)	survival (MOLT-4 cells; three groups with continued treatment)	affinity relative to the full Y1 antibody (KG-1 cells [4])
B1	significantly lower percentage of KG-1 cells	no effect	12.8	3.17	weighted significantly less	markedly inhibited tumor growth in the liver	inhibited tumor growth	prolonged	–
B2	–	–	–	–	–	–	–	–	twofold lower
